These results are taken from paper PMC3724922 (PLoS ONE, 2013).

Changes are numbered by the printed parent chain. Numbers in names are those of the source.

The labels stand for the following.
B1: laforin wild type, recombinant, no epitope tag (enzyme, human, UniProt O95278 1-331, looked up)
chain: MRFRFGVVVPPAVAGARPELLVVGSRPELGRWEPRGAVRLRPAGTAAGDGALALQEPGLWLGEVELAAEEAAQDGAEPGRVDTFWYKFLKREPGGELSWEGNGPHHDRCCTYNENNLVDGVYCLPIGHWIEATGHTNEMKHTTDFYFNIAGHQAMHYSRILPNIWLGSCPRQVEHVTIKLKHELGITAVMNFQTEWDIVQNSSGCNRYPEPMTPDTMIKLYREEGLAYIWMPTPDMSTEGRVQMLPQAVCLLHALLEKGHIVYVHCNAGVGRSTAAVCGWLQYVMGWNLRKVQYFLMAKRPAVYIDEEALARAQEDFFQKFGKVRSSVCSL
notes: laforin, human, a 331 amino acid protein encoded by EPM2A; amplified from pEG202-laforin into pET21b+ (NdeI, NotI); also called laforin WT; wt laforin; source: E. coli BL21 (RIL), pET21b+-laforin, purified (amylose resin)
B2: laforin C109S/110S, recombinant, no epitope tag (enzyme, human, UniProt O95278 1-331, looked up)
chain: B1 chain with C109S, C110S
notes: laforin, human, 331 amino acids (EPM2A), double mutant C109S/110S; source: E. coli BL21 (RIL), pET21b+, purified (amylose resin)
B3: laforin C169S, recombinant, no epitope tag (enzyme, human, UniProt O95278 1-331, looked up)
chain: B1 chain with C169S
notes: laforin, human, 331 amino acids (EPM2A), mutant C169S; source: E. coli BL21 (RIL), pET21b+, purified (amylose resin)
B4: laforin C205S, recombinant, no epitope tag (enzyme, human, UniProt O95278 1-331, looked up)
chain: B1 chain with C205S
notes: laforin, human, 331 amino acids (EPM2A), mutant C205S; source: E. coli BL21 (RIL), pET21b+, purified (amylose resin)
B5: laforin C250S, recombinant, no epitope tag (enzyme, human, UniProt O95278 1-331, looked up)
chain: B1 chain with C250S
notes: laforin, human, 331 amino acids (EPM2A), mutant C250S; source: E. coli BL21 (RIL), pET21b+, purified (amylose resin)
B6: wild type laforin with an amino-terminal HIS6 epitope (enzyme, human, UniProt O95278 1-331, looked up)
chain: B1 chain
notes: laforin, human, 331 amino acids (EPM2A); The plasmid of the His6 constructs is not described in the methods; also called laforin-WT; WT; not shown: His6, N-terminal, kept
B7: laforin C123S, recombinant, no epitope tag (enzyme, human, UniProt O95278 1-331, looked up)
chain: B1 chain with C123S
notes: laforin, human, 331 amino acids (EPM2A), mutant C123S; source: E. coli BL21 (RIL), pET21b+, purified (amylose resin)
B8: laforin C266S, recombinant, no epitope tag (enzyme, human, UniProt O95278 1-331, looked up)
chain: B1 chain with C266S
notes: laforin, human, 331 amino acids (EPM2A), catalytic cysteine mutant C266S; source: E. coli BL21 (RIL), pET21b+, purified (amylose resin)

One data set concerns the molecule itself. In words: native gel or EMSA; purified recombinant proteins incubated with 10 mM H2O2, then non-reducing, non-denaturing electrophoresis, anti-laforin immunoblot.
Consider B1, for which the binding result is “binds”.

The next data set concerns the molecule itself. Briefly: native gel or EMSA; purified recombinant proteins, non-reducing, non-denaturing electrophoresis (SDS- and DTT-free loading buffer), immunoblot with anti-laforin or anti-HIS antibody; self-association, monomer and dimer bands.
For B2, the binding result was “binds”.

On to B3, for which the binding result is listed as “binds”. Still for that read-out and setting: as for B4, the entry is “binds”. The same measure, in the same setting: as for B5, the entry is “binds”; as for B6, “binds”; as for B7, “binds”. With B8, the binding result was “binds”.
